Assay results as given in patent US20250382602.
Numbering of substitutions follows the chain as printed.

Assays:
Conditions in all cases: nanopore translocation; background mutations not given
[1] = molecular target: T1, Dda 1993 C114A C114A (Enterobacteria phage T4) (UniProt P32270)
T1 sequence: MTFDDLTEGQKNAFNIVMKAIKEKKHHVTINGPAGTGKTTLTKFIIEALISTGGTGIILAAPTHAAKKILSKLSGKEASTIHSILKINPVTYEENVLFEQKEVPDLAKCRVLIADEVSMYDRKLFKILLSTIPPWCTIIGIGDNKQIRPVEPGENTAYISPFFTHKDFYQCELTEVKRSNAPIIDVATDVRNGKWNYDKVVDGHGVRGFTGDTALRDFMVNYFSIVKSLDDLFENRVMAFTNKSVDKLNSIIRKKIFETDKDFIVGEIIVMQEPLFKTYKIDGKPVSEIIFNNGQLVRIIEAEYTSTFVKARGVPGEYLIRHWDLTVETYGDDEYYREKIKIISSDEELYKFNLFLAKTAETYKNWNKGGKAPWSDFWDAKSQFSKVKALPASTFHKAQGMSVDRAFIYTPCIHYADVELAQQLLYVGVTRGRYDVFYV

[2] = molecular target: T2, Dda 1993 C114L C114L (Enterobacteria phage T4) (UniProt P32270)
T2 sequence: T1 sequence with A114L

[3] = molecular target: T3, Dda 1993 C114M C114M (Enterobacteria phage T4) (UniProt P32270)
T3 sequence: T1 sequence with A114M

[4] = molecular target: T4, Dda 1993 C114P C114P (Enterobacteria phage T4) (UniProt P32270)
T4 sequence: T1 sequence with A114P

[5] = molecular target: T5, Dda 1993 C114S C114S (Enterobacteria phage T4) (UniProt P32270)
T5 sequence: T1 sequence with A114S

[6] = molecular target: T6, Dda 1993 C114T C114T (Enterobacteria phage T4) (UniProt P32270)
T6 sequence: T1 sequence with A114T

barcoded 3.6 kb DNA analyte ligated to sequencing Y adaptor
activity (bps speed delta vs control) [1]: 13.8
activity (bps speed delta vs control) [2]: -42
activity (bps speed delta vs control) [3]: 81.8
activity (bps speed delta vs control) [4]: 84.5
activity (bps speed delta vs control) [5]: -7.28
activity (bps speed delta vs control) [6]: -35.7
